From patent US8106168B2, “Metalloproteinase binding proteins” (Dyax Corp., priority 2005, dated 2012) come the findings set out here.

B1: M0040-G04: Fab that binds human MMP-14; DNA LV SEQ ID NO: 98, HV SEQ ID NO: 99 (antibody, V domains shown)
VL: QSVLTQPPSASGTPGQRVTISCSGSRTNIGSDYVYWYQQLPGTAPKLLIYRNNERPSGVPDRFSGFKSGTSASLAISGLRSEDEADYYCASWDDRLSGPVFGGGTKLTVL
VH: EVQLLESGGGLVQPGGSLRLSCAASGFTFSQYHMLWVRQAPGKGLEWVSVIVSSGGFTFYADSVKGRFTISRDNSKNTLYLQMNSLRAEDTAVYYCARSYGGDAFDIWGQGTMVTVSS
modifications: Synthetically generated oligonucleotide
B2: M0040-F03: Fab that binds human MMP-14; DNA LV SEQ ID NO: 96, HV SEQ ID NO: 97 (antibody, V domains shown)
VL: QDIQMTQSPLSLPVTPGEPASISCRSGQSLLHSNGYNYLNWYLQKPGQSPQLLIYLGSYRASGVPDRFSGSGSGTDFTLKISRVEAEDVGLYYCMQALQTPLTFGVGTKVEIK
VH: EVQLLESGGGLVQPGGSLRLSCAASGFTFSMYVMSWVRQAPGKGLEWVSSISSSGGNTGYADSVKGRFTISRDNSKNTLYLQMNSLRAEDTAVYYCAKSSLYYDILAGPGFDYWGQGTLVTVSS
modifications: Synthetically generated oligonucleotide
B3: M0041-C11: Fab that binds human MMP-14; DNA LV SEQ ID NO: 110, HV SEQ ID NO: 111 (antibody, V domains shown)
VL: QDIQMTQSPSSLSASVGDRVTITCRASQRIGSYLNWYQQNSGKAPRLLIYGASNLESGVPSRFSGRGSGTDFTLTISSLQPEDFATYYCQQSNSTPHTFGQGTKVEIK
VH: EVQLLESGGGLVQPGGSLRLSCAASGFTFSQYPMSWVRQAPGKGLEWVSSIGPGGWTWYADSVKGRFTISRDNSKNTLYLQMNSLRAEDTAVYYCARTATRIFGVVIMGRAFDIWGQGTMVTVSS
modifications: Synthetically generated oligonucleotide
B4: M0041-B03: Fab that binds human MMP-14; DNA LV SEQ ID NO: 106, HV SEQ ID NO: 107 (antibody, V domains shown)
VL: QDIQMTQSPATLSASVGDRVTISCRASQNISNWLAWYQQKPGKAPKLLIYTASTLHRGVPSRFSGSGSGTDFTLTITSLQPEDFATYYCQQANTFPWTFGQGTKVEIK
VH: EVQLLESGGGLVQPGGSLRLSCAASGFTFSMYMMWWVRQAPGKGLEWVSVISSSGGFTSYADSVKGRFTISRDNSKNTLYLQMNSLRAEDTAVYYCARLRYSNFVGGLDVWGQGTTVTVSS
modifications: Synthetically generated oligonucleotide
B5: M0040-H04: Fab that binds human MMP-14; DNA LV SEQ ID NO: 100, HV SEQ ID NO: 101 (antibody, V domains shown)
VL: QDIQMTQSPDSLAVSLGERATLNCRSSQSVLYSPNNKNYLAWYQQKAGQPPKLLIYWASFRESGVPERFSGSGSGTDFTLTISSLQAEDVAVYYCQQYHTPPWTFGQGTKVEIK
VH: EVQLLESGGGLVQPGGSLRLSCAASGFTFSSYDMVWVRQAPGKGLEWVSSISPSGGNTQYADSVKGRFTISRDNSKNTLYLQMNSLRAEDTAVYYCAKVAAMAPWYFDYWGQGTLVTVSS
modifications: Synthetically generated oligonucleotide
B6: M0040-H09: Fab that binds human MMP-14; DNA LV SEQ ID NO: 102, HV SEQ ID NO: 103 (protein)
chain 1: QSELTQDPAVSVALGQAVIITCQGDSLRTYYPSWYQQKPGQAPTLLVYGKNKRPSGVPDRFSGSRSGDTASLIITGAQAEDDADYYCNSRDGSGHLFVFGPGTTVTVL
chain 2: EVQLLESGGGLVQPGGSLRLSCAASGFTFSLYPMQWVRQAPGKGLEWVSYIRSSGGKTHYADSVKGRFTISRDNSKNTLYLQMNSLRAEDTAVYYCARVGMGSGWYTGYFDLWGRGTLVTVSS
modifications: Synthetically generated oligonucleotide
B7: M0041-E11: Fab that binds human MMP-14; DNA LV SEQ ID NO: 116, HV SEQ ID NO: 117 (protein)
chain 1: QDIQMTQSPSSLSAFVGDRVIITCRASQDISVYVNWYQQSSGKAPKLLIYGASSLQSGVPSRFSGSGSGTDFTLTISSLQPEDFASYFCQQSYNLPFTFGGGTNVQIK
chain 2: EVQLLESGGGLVQPGGSLRLSCAASGFTFSQYNMQWVRQAPGKGLEWVSGIVPSGGWTPYADSVKGRFTISRDNSKNTLYLQMNSLRAEDTAVYYCARGVRYGLDYWGQGTLVTVSS
modifications: Synthetically generated oligonucleotide
B8: M0040-D08: Fab that binds human MMP-14; DNA LV SEQ ID NO: 94, HV SEQ ID NO: 95 (antibody, V domains shown)
VL: QSALTQSPSASASLGSSVKLTCTLASEHSGYIIAWHQQQPGKAPRFLMKLDGTGNFNKGSGVPDRFSGYSSGADRYLTISNLQSEDEADYYCETWDSTTLWVFGGGTKLTVL
VH: EVQLLESGGGLVQPGGSLRLSCAASGFTFSHYGMTWVRQAPGKGLEWVSSIVPSGGYTAYADSVKGRFTISRDNSKNTLYLQMNSLRAEDTAVYYCTTGLSSSGTRWFDAWGQGTLVTVSS
modifications: Synthetically generated oligonucleotide
B9: M0041-A05: Fab that binds human MMP-14; DNA LV SEQ ID NO: 104, HV SEQ ID NO: 105 (antibody, V domains shown)
VL: QDIQMTQSPSSLSASVGDRVTITCRASQNINSYLNWYQQKPGKAPKLLIYAASSLQSGVPSRFSGSGSGTDFTLTISSLQPEDFVTYYCQQSYSTPKTFGQGTKVEIK
VH: EVQLLESGGGLVQPGGSLRLSCAASGFTFSVYTMHWVRQAPGKGLEWVSVIYPSGGLTIYADSVKGRFTISRDNSKNTLYLQMNSLRAEDTAVYYCARNRGYYAPMDVWGQGTTVTVSS
modifications: Synthetically generated oligonucleotide
B10: M0041-D03: Fab that binds human MMP-14; DNA LV SEQ ID NO: 112, HV SEQ ID NO: 113 (antibody, V domains shown)
VL: QDIQMTQSPSSLSASVGDRITVTCRASQSITNYLNWYQQKPGKAPKLLIYAASTLQSGVPSRFSGSGSGTDFTLTISRLEPEDFAVYYCQQYGSSPTFGQGTKVEVK
VH: EVQLLESGGGLVQPGGSLRLSCAASGFTFSFYNMTWVRQAPGKGLEWVSSIYSSGGNTDYADSVKGRFTISRDNSKNTLYLQMNSLRAEDTAVYYCARDSLSHYYYGMDVWGQGTTVTVSS
modifications: Synthetically generated oligonucleotide
B11: M0041-B11: Fab that binds human MMP-14; DNA LV SEQ ID NO: 108, HV SEQ ID NO: 109 (antibody, V domains shown)
VL: QSVLTQDPAVSVALGQTVRITCQGDSLRSYSASWYQRKPGQAPLLVIYRKTNRPSGIPDRFSGSSSGNTASLTITGAQAEDESDYYCNSRDSSGNHLFGGGTKLTVL
VH: EVQLLESGGGLVQPGGSLRLSCAASGFTFSQYSMHWVRQAPGKGLEWVSSIVPSGGMTAYADSVKGRFTISRDNSKNTLYLQMNSLRAEDTAVYYCAKISRGNDAFDIWGQGTMVTVSS
modifications: Synthetically generated oligonucleotide

In the assay the target is MMP-14 (Homo sapiens, UniProt P50281). Kind of assay: Selection and phage ELISA screening of anti-MMP-14 Fabs. It is filed as binding. Conditions: Fab from FAB310 phage display library. The procedure: Strategy I: A 100-fold excess of the FAB310 library (e.g., an amount of the library that should contain 100 copies of each library member) was depleted of streptavidin-binding antibodies by incubating the library with 200 μL of streptavidin beads for 1 hour at room temperature (RT) with rotation. 500 nM of biotinylated MMP-14 was coupled to streptavidin beads by incubation with 100 μL of streptavidin beads. The MMP-14 beads were then incubated with the streptavidin-depleted library for 1 hour at RT with rotation. The beads were then rinsed three times with 2% MTRIS/0.1% Tween, transferred to a fresh tube and washed an additional three times with 2% MTRIS/0.1% Tween, and transferred to a fresh tube and washed a final time with Round 1 TRIS buffer (50 mM TRIS; 50 mM CaCl2; 150 mM NaCl, pH 7.5).
MMP-14 binding antibodies were eluted from the beads by re-suspension in 1 mL 2% MTRIS containing 2.5 μM TIMP-2 and incubation for 1 hour at RT with rotation. The beads were then washed three times with 2% MTRIS/0.1% Tween, transferred to a fresh tube and washed three times with TRIS/0.1% Tween, and transferred to a fresh tube and washed a final time with TRIS. 1 mL output was used for infection of 9 mL TG1 bacteria (grown to OD600=0.5). The beads were further eluted by suspension in 1 mL 100 mM TEA for 10 minutes. The supernatant was neutralized with 500 μl TRIS/HCl pH 7.5. 1 mL of the second elution was used for infection of 9 mL TG1 bacteria (grown to OD600=0.5).
Two additional rounds of selection were carried out under the same conditions as the first round, except that the streptavidin beads were loaded with 100 nM biotinylated MMP-14 and the number of washes were doubled (6 times with 2% MTRIS/0.1% Tween, 6 times with TRIS/0.1% Tween and 2 times with TRIS), and Round 2/3 Tris buffer (50 mM TRIS; 5 mM CaCl2; 150 mM NaCl pH=7.5) was used for incubation and wash.
TIMP-2 was coupled to carboxylic beads, then complexed with a combination of biotinylated MMP-14 (500 nM each). The complexed beads were incubated with a 100 fold excess of FAB310 library that had been previously depleted by incubation with streptavidin beads and carboxylic beads. Elution/washing was carried out as for Strategy I.
Two additional rounds of selection were carried out, essentially as described for Strategy I, except that only 100 nM of each of MMP-14 were used in the bead complexes.
384-well plates were coated with biotinylated BSA (2 μg/ml in 50 mM TRIS; 5 mM CaCl2; 150 mM NaCl, pH 7.5), then washed 3 times with 50 mM TRIS; 5 mM CaCl2; 150 mM NaCl, pH 7.5; 0.1% Tween. Streptavidin was captured on the coated plates by incubation with 10 μg/mL streptavidin in 50 mM TRIS; 5 mM CaCl2; 150 mM NaCl pH 7.5; 0.5% Gelatin, followed by a wash with 50 mM TRIS; 5 mM CaCl2; 150 mM NaCl pH=7.5; 0.1% Tween. On the day the assay was to be performed, biotinylated MMP-14 (1 μg/ml) was captured in 50 mM TRIS; 5 mM CaCl2; 150 mM NaCl, pH 7.5.
95 clones were picked from each of Round 2 and Round 3 of each selection strategy, producing 12 masterplates. ELISA was run on the MiniTrak-5 deck according to SOP.
(In an ELISA, binding on a coated surface is turned into a signal by an enzyme label.)
With B1, the “bind to human MMP-14” value was “bind to human MMP-14”.
For the molecule B2, the “bind to human MMP-14” value was “bind to human MMP-14”.
With B3, the “bind to human MMP-14” value was “bind to human MMP-14”.
For B4 the value was “bind to human MMP-14”; for B5, “bind to human MMP-14”.
In the case of B6, the “bind to human MMP-14” value is listed as “bind to human MMP-14”.
For B7 the value was “bind to human MMP-14”; for B8, “bind to human MMP-14”.
The value for B9 was “bind to human MMP-14”; that for B10 was “bind to human MMP-14”; that for B11 was “bind to human MMP-14”.
